From article doi:10.1101/2025.03.24.644971

Experiments:
Test in all cases: EMSA
[1] = test system: Calb_Rsc1 213-599 WT (AT-hook-BD2-BAH) (Candida albicans); details: 50 mM Tris-HCl pH 7.5, 100 mM NaCl, 2.5% glycerol, 0.1 mM EDTA, 1 mM DTT
[2] = test system: Calb_Rsc1 213-599 BAH mutant (Candida albicans); details: 50 mM Tris-HCl pH 7.5, 100 mM NaCl, 2.5% glycerol, 0.1 mM EDTA, 1 mM DTT
[3] = biological target: T1, Scer_Rsc1 221-596 basic-surface mutant (Saccharomyces cerevisiae, UniProt P53236 221-596, K246E;R249E;R250E)
T1 sequence: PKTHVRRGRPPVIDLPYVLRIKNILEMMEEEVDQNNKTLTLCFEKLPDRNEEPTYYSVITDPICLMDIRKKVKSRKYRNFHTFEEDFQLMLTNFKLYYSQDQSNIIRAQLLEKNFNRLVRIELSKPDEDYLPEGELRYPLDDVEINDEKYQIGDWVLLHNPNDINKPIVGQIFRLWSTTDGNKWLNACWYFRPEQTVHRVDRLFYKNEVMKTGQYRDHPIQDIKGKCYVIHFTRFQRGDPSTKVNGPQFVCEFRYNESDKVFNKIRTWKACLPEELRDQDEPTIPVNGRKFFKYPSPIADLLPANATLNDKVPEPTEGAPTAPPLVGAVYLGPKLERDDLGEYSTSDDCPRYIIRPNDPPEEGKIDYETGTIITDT

[4] = biological target: Scer_Rsc2 261-636 basic-surface mutant (Saccharomyces cerevisiae, UniProt Q06488 261-636, K286E;K289E;K290E)
Scer_Rsc2 261-636 WT = Scer_Rsc2 261-636 WT (Saccharomyces cerevisiae, UniProt Q06488 261-636)
Scer_Rsc1 221-596 WT = biological target: T2, Scer_Rsc1 221-596 WT (Saccharomyces cerevisiae, UniProt P53236 221-596)
T2 sequence: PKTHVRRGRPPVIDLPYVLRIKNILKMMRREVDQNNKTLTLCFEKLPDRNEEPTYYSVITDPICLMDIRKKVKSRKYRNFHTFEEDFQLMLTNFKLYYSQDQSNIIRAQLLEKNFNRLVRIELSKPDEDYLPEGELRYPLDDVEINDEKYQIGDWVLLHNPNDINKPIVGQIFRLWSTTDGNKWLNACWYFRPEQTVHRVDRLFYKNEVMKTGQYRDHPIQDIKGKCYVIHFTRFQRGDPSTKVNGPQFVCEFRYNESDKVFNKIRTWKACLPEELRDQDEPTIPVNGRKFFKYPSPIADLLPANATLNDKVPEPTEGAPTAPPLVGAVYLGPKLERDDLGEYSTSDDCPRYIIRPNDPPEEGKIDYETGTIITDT

Sequence of Scer_Rsc2 261-636 WT (Q06488 261-636): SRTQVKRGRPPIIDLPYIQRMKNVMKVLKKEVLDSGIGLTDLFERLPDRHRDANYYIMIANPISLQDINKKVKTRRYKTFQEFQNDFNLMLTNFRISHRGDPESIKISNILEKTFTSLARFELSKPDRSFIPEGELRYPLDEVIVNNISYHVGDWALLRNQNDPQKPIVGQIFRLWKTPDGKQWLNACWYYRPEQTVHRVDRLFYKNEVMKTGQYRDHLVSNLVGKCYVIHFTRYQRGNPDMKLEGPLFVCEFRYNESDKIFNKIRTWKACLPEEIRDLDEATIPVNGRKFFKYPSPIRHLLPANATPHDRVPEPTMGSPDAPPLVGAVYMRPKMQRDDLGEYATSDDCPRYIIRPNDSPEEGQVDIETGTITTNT
Sequence of Scer_Rsc2 261-636 basic-surface mutant (Q06488 261-636 K286E/K289E/K290E): as the sequence (Q06488 261-636) above, with K26E, K29E, K30E counted along it

## ATCAGGTCGCTGTTCAATACATGCACAGGATGTATATATCTGACACGTGCCTGGAGACTAGGGAGTAATCCCCTTGGCGGTTAAAACGCGGGGGACAGCGCGTACGTGCGTTTAAGCGGTGCTAGAGCTGTCTACGACCAATTGAGCGGCCTCGGCACCGGGATTCTCCAGGGCGGCCGCGTATAGGGTCCATCGAT (double strand) [197bp 601 DNA]
[1]
  Kd: 1900 nM
[2]
  Kd: 11.3 µM

## ATCGATGTATATATCTGACACGTGCCTGGAGACTAGGGAGTAATCCCCTTGGCGGTTAAAACGCGGGGGACAGCGCGTACGTGCGTTTAAGCGGTGCTAGAGCTGTCTACGACCAATTGAGCGGCCTCGGCACCGGGATTCTGAT (double strand) [145bp 601 DNA]
[1]
  Kd: 1900 nM
[2]
  Kd: > 15 µM

## GCATCAGTCTTATAGGAAGAAAAACAAAAAGTCCATCGATCTAG (double strand) [A-rich (polyA) probe]
[1]
  Kd: 7400 nM

B1: A-rich (polyA) probe (dsDNA)
DNA 1: GCATCAGTCTTATAGGAAGAAAAACAAAAAGTCCATCGATCTAG
DNA 2: CTAGATCGATGGACTTTTTGTTTTTCTTCCTATAAGACTGATGC
[3]
  binding result: no binding
[4]
  binding result: no binding
Scer_Rsc2 261-636 WT
  Kd: 2900 nM
Scer_Rsc1 221-596 WT
  Kd: 3.7 µM
